Test results as given in patent US9878005B2, “Method of promoting wound healing with hyodxia-induced mitogenic factor” (THE JOHNS HOPKINS UNIVERSITY, priority 2003, dated 2018).

What was measured:
[1] = system: rat pulmonary microvascular smooth muscle cells (RPSM); assay: 3H-thymidine incorporation assay (RPSM proliferation); type: cell-based; settings: for inhibition of serum-induced RPSM proliferation: preliminary experiments
Source text: Cell culture and ^3H-thymidine incorporation assays. Rat pulmonary microvascular smooth muscle cells (RPSM) were isolated from male Sprague-Dawley rats (150-200 g) according to a published method2. Briefly, after the pulmonary artery was flushed with phosphate buffered saline (PBS), it was infused with 2% iron oxide suspension in 0.5% agar. The air spaces were filled with agar, the subpleural margins were harvested and partially collagenase digested, and the microvessels were separated magnetically. The identity of RPSM was confirmed by characteristic appearance on phase-contrast microscopy and indirect immunofluorescent antibody staining for smooth muscle-specific isoforms of […] and myosin heavy chain. RPSM were grown in DMEM/F12 medium supplemented with 10% fetal bovine serum (FBS), 2 mM of glutamine, […] of penicillin and 100 μg/ml of streptomycin. Passage 3 to 5 cells were used in the experiments.
The cells were seeded in 24-well plates at 5×10^4/well. After synchronization with serum-free DMEM/F12 (supplemented with 1% Bovine serum albumin (BSA)) for 24 to 48 hours, the cells were treated with the specified agents and 0.1 μCi/well (or 1 μCi/well) of 3H-thymidine in the serum-free DMEM/F12 for 48 hours. After the experimental protocol was completed, the cells were rinsed with PBS twice and incubated in 10% TCA for 30 min. The cells were then washed with PBS two more times and lysed in 250 μl of the lysis buffer (1% SDS, 0.8% NaOH). 3H-thymidine incorporation was measured with a Beckman 6500 scintillation counter in 10 ml of scintillation cocktail.

[2] = system: Akt phosphorylation (PI3K/Akt pathway) in RPSM; assay: Western blot for pAkt and Akt in RPSM; type: cell-based, rat; settings: for inhibition of HIMF-activated Akt phosphorylation: 5 minutes
Protocol: Western blots. The tissue collection and homogenization were performed as described before^1. HIMF was detected with 1:1000 dilution of the anti-HIMF antibody (raised in rabbit using the peptide CENKVKELLANPANYP (SEQ ID NO: 10) conjugated to keyhole limpet hemocyanin as the antigen) followed by 1:3000 dilution of goat anti-rabbit HRP-labeled antibody (BioRad, Hercules, Calif.). The specificity of the anti-HIMF antibody was preliminarily characterized with peptide competition. The peptide used as the immunogen blocked only the HIMF band and had no effect on the nonspecific bands. For phospho-Akt (pAkt) and Akt blots, RPSM were lysed in CelLytic-M (Sigma, St. Louis, Mo.) supplemented with 1 mM PMSF and 1:100 of protease inhibitor cocktail, phosphatase inhibitor cocktail 1 and 2 (Sigma, St. Louis, Mo.). 18 μg of protein in equal volume was subjected to electrophoresis in 4-20% polyacrylamide gel (BioRad, Hercules, Calif.). After transfer to nitrocellulose membrane, the membrane was first probed with anti-pAkt1/2/3(Thr308)(1:500, (Santa Cruz Biotechnology, Santa Cruz, Calif.). Then it was stripped and reprobed with anti-Akt1/2/3 (1:500, (Santa Cruz Biotechnology, Santa Cruz, Calif.).

[3] = system: Akt phosphorylation in L2 cells; assay: Akt phosphorylation in L2 cells (HIMF isolation vs mock isolation); type: cell-based
Protocol: Recombinant HIMF. The C-terminal tagged HIMF was generated by PCR and inserted into pcDNA5/FRT/TO vector using the EcoR V and Xho I restriction sites. The pcDNA5/FRT/TO vector containing the recombinant HIMF gene was then integrated in a Flp recombinase-dependent manner into the genome of the Flp-In™ T-REx™ 293 cell line using the Flp-In™ T-REx™ kit from Invitrogen (Carlsbad, Calif.). Production of recombinant HIMF was induced by tetracycline (1 μg/ml) in the 293 cells maintained in DMEM supplemented with 5% FBS, 2 mM of glutamine, 100 U/ml of penicillin and 100 μg/ml of streptomycin, 100 μg/ml of hygromycin B, and 7.5 μg/ml of blasticidin. HIMF was purified by anti-FLAG M2 antibody agarose (Sigma, St. Louis, Mo.) column chromatography from the 293 cell culture medium with FLAG (0.1 mg/ml) elution. The concentration of the HIMF protein was estimated semi-quantitatively by silver staining after SDS-PAGE using BSA as the standard. […] Therefore, the recombinant protein has 96 amino acids and has a calculated molecular weight of 10,444 Da. […] To exclude the role of possible contaminants such as insulin, a mock isolation control experiment was performed. The medium obtained from the control TREx-293 cell culture was used for the mock isolation. […]

[4] = system: vascular tube formation in the Matrigel plug; assay: Matrigel plug assay in vivo; set-up: species or system mouse; settings: HIMF 50 nM final, subcutaneous, 7 days; FLAG control 4.3±0.84; n=3, P<0.001
Protocol: Matrigel plug assays: 200 μl of Matrigel mixed with FLAG or HIMF (50 nM final) was injected subcutaneously (n=3 for each group) on the back of mice. Mice were sacrificed after 7 days and the Matrigel plugs collected. Following fixation in 4% paraformaldehyde in PBS ([…], pH 7.4), 10 μm frozen sections were cut and stained either with hemotoxylin and eosin (HE) or von Willebrand factor (vWF). For the detection of vWF, anti-human vWF (1:250 dilution, Dako) and anti-rabbit IgG conjugated with FITC (1:500 dilution) were used. The positive cells were counted and expressed as cell numbers per 20× field.

pulmonary vasculature = assay: Intact chest mouse experiment; type: in vivo; settings: intravenous injection
Protocol: Intact chest mouse experiment. The animals were ventilated with 95% O2/5% CO2 and 2% isoflurane using a custom-designed, constant-flow mouse ventilator with tidal volume set to 6.7 ml/kg at 140 breaths/min. A femoral artery was cannulated for the measurement of systemic arterial pressure, which was measured with a Viggo-Spectramed transducer attached to a polygraph (Grass Instruments, model 7). Heart rate was determined from the systolic pressure pulses with a tachometer (Grass, model 7P44A), and the left jugular vein was cannulated for the administration of drugs. The animals were strapped in the supine position to a fluoroscopic table, and PAP was measured with a specially designed murine pulmonary arterial catheter attached to a pressure transducer (Schneider/Namic). Mean PAP was derived electronically, and pulmonary arterial wedge pressure was determined by recently described procedures^6. Cardiac output was measured by the thermodilution technique by injection of a known volume (20 μl) of 0.9% NaCl solution at 23° C. into the right atrium and measurement of blood temperature changes in the root of the aorta with a cardiac output computer (Cardiotherm 500, Columbus Instruments, Columbus, Ohio) equipped with a small-animal interface. A thermistor microprobe (Columbus Instruments, Fr-1) was inserted into the right carotid artery and advanced to the aortic arch, where changes in aortic blood temperature were measured.

Molecule: O=C(Nc1cc(C(=O)Nc2ccc(S(=O)(=O)[O-])cc2S(=O)(=O)[O-])cc(C(=O)Nc2ccc(S(=O)(=O)[O-])cc2S(=O)(=O)[O-])c1)Nc1cc(C(=O)Nc2ccc(S(=O)(=O)[O-])cc2S(=O)(=O)[O-])cc(C(=O)Nc2ccc(S(=O)(=O)[O-])cc2S(=O)(=O)[O-])c1.[Na+].[Na+].[Na+].[Na+].[Na+].[Na+].[Na+].[Na+] [NF449, reference compound]
- inhibition of serum-induced RPSM proliferation [1]: inhibit
- inhibition of HIMF-activated Akt phosphorylation ([2]; inhibitor 50 μmol/L, HIMF 5×10^−8 mol/L): did not inhibit

Molecule: O=c1c(-c2ccc(O)cc2)coc2cc(O)cc(O)c12 [Genistein, reference compound]
- inhibition of serum-induced RPSM proliferation [1]: inhibit
- inhibition of HIMF-activated Akt phosphorylation ([2]; inhibitor 20 μmol/L, HIMF 5×10^−8 mol/L): did not inhibit

B1: HIMF: hypoxia-induced mitogenic factor; recombinant C-terminal FLAG-tagged protein of 96 amino acids purified from 293 cell culture medium (protein, UniProt Q9EP95 24-111, looked up)
Resistin-like alpha: DETIEIIVENKVKELLANPANYPSTVTKTLSCTSVKTMNRWASCPAGMTATGCACGFACGSWEIQSGDTCNCLCLLVDWTTARCCQLS
modifications: C-terminal FLAG tag
notes: hypoxia-induced mitogenic factor; recombinant C-terminal FLAG-tagged protein of 96 amino acids purified from 293 cell culture medium
- proliferation of RPSM (3H-thymidine incorporation) ([1]; HIMF 3.3×10^−9 to 3.3×10^−8 mol/L): dose-dependently increased
- Akt activation sustained through ([2]; HIMF 5×10^−8 mol/L): ≥ 60 min
- activation of phosphorylation of Akt ([2]; HIMF 5×10^−8 mol/L): strongly activated
- time of peak Akt activation (phosphorylation) ([2]; HIMF 5×10^−8 mol/L): 5 min
- activation of Akt by the recombinant protein ([2]; preliminary experiments): activated
- Akt phosphorylation in L2 cells ([3]; HIMF isolation, mock isolation had no effect): stimulated
- activation of Akt by the recombinant protein ([3]; L2 cells, preliminary experiments): activated
- vascular tube formation in the Matrigel plug [4]: 17.7±1.37 /×20 field
- pulmonary arterial pressure (PAP) (pulmonary vasculature): increased
- pulmonary vascular resistance (PVR) (pulmonary vasculature): increased
- pulmonary vasoconstrictor potency versus endothelin-1, angiotensin II, or serotonin (molar dose-response curves) (pulmonary vasculature): more potent
